The record followed here is IntAct's records for PubMed 9428767.

First the molecules themselves.
B1: Guanine nucleotide-binding protein subunit beta (Saccharomyces cerevisiae), P18851 (parent)
chain: MAAHQMDSITYSNNVTQQYIQPQSLQDISAVEDEIQNKIEAARQESKQLHAQINKAKHKIQDASLFQMANKVTSLTKNKINLKPNIVLKGHNNKISDFRWSRDSKRILSASQDGFMLIWDSASGLKQNAIPLDSQWVLSCAISPSSTLVASAGLNNNCTIYRVSKENRVAQNVASIFKGHTCYISDIEFTDNAHILTASGDMTCALWDIPKAKRVREYSDHLGDVLALAIPEEPNSENSSNTFASCGSDGYTYIWDSRSPSAVQSFYVNDSDINALRFFKDGMSIVAGSDNGAINMYDLRSDCSIATFSLFRGYEERTPTPTYMAANMEYNTAQSPQTLKSTSSSYLDNQGVVSLDFSASGRLMYSCYTDIGCVVWDVLKGEIVGKLEGHGGRVTGVRSSPDGLAVCTGSWDSTMKIWSPGYQ
partner: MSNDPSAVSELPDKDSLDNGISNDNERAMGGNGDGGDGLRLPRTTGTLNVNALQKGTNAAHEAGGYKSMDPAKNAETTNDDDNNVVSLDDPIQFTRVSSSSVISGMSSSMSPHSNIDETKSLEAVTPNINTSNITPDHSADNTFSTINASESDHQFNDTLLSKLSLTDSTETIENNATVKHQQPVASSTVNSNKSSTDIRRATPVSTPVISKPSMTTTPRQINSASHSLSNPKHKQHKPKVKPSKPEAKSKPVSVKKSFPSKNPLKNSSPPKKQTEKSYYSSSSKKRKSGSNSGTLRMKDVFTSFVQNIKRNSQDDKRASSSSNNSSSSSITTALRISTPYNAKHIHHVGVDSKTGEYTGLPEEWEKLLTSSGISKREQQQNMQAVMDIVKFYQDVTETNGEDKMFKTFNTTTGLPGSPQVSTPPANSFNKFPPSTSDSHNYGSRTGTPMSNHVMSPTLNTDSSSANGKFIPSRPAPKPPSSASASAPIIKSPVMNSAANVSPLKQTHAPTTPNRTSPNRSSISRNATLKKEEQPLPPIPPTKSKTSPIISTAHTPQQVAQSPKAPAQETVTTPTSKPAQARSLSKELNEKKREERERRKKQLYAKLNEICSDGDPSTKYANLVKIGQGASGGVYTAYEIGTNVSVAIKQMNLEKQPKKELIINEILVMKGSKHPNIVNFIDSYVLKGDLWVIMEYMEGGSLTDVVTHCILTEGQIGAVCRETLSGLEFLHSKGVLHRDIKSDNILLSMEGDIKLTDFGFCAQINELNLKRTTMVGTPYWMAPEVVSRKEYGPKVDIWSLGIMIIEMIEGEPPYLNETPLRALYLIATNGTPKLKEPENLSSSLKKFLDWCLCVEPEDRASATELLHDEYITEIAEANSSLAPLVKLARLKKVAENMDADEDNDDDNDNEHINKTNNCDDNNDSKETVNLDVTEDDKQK
B2: Serine/threonine-protein kinase STE20 (Saccharomyces cerevisiae), Q03497 (parent)
chain: B1 partner
partner: B1 chain

Variants of B1 are the subject of the first test. The following applies: with ste20_yeast STE20, Q03497.
As to K55D, the “effect of a mutation on the interaction” value is reported as “decreasing interaction”.
Still for that read-out and setting: as for D62N, the entry is “decreasing interaction”.

The next test covers variants of B2. The following applies: with gbb_yeast STE4, P18851.
As for S879A;S880A;P883A, the “effect of a mutation on the interaction” value is “decreasing interaction”.
